PLA interaction signals per infected cell (signals per infected cell) data for 1 substance are collected here from publication PMC6171931.

The target of the test is HCV NS5B (RNA-dependent RNA polymerase), JFH1 (Hepatitis C virus (JFH1)). As to the kind of experiment: proximity ligation.

As for “ATG5-12 conjugate (from UniProt Q9H1Y0 1-275; O94817 1-140) (complex)”, the PLA interaction signals per infected cell (signals per infected cell) is 380.
